Measurements reported in publication PMC6239184, “Dynamic association of human mRNP proteins with mitochondrial tRNAs in the cytosol”.

B1: mt tRNALeu(UUR) (structured_RNA)
RNA: GUUAAGAUGGCAGAGCCCGGUAAUCGCAUAAAACUUAAAACUUUACAGUCAGAGGUUCAAUUCCUCUUCUUAACACCA
B2: mt tRNAGly (structured_RNA)
RNA: ACUCUUUUAGUAUAAAUAGUACCGUUAACUUCCAAUUAACUAGUUUUGACAACAUUCAAAAAAGAGUACCA

What was measured:
YBX3 = YBX3 (Homo sapiens, UniProt P16989 1-372); assay: EMSA; EMSA: 1 fmol labeled RNA, 0.1-4 pmol protein, 5% native acrylamide gel; buffer, salt, pH, temperature not given (refers to Marnef et al. 2016); conditions: protein: recombinant, tags: Strep-tag (N-terminal, in 5' primer), Ni-NTA purified, tRNA fold
Sequence of YBX3 (P16989 whole entry): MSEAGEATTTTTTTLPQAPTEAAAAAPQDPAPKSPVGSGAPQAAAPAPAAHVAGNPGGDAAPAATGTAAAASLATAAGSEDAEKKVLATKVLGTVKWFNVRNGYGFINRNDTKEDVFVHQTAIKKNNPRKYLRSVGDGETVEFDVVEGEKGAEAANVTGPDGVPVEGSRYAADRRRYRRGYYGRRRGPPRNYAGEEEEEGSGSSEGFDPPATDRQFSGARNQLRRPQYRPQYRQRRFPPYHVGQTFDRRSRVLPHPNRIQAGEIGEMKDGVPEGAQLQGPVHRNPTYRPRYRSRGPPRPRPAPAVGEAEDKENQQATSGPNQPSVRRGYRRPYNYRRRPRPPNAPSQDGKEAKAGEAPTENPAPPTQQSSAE

YBX1 = YBX1 (Homo sapiens, UniProt P67809 1-324); assay: as above; conditions: protein: recombinant, tags: Strep-tag (N-terminal, in 5' primer), Ni-NTA purified, tRNA fold
Sequence of YBX1 (P67809 whole entry): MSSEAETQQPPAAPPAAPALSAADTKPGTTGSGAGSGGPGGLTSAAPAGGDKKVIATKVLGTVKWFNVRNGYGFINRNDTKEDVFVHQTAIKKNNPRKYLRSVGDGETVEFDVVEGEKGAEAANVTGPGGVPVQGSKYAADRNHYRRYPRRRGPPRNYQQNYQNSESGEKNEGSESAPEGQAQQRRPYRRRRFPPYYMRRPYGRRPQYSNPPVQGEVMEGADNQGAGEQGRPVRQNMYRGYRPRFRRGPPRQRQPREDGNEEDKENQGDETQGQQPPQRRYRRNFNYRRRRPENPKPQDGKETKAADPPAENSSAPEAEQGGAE

Binder	binding result (YBX3; label: internal 32P-CTP)	binding result (YBX1; label: internal 32P-CTP)	binding result (YBX3)	binding result (YBX1)
B1	binds	binds		
B2			binds	binds
